B1: M. smegmatis ATP synthase subunit c (natural protein)
chain: MDLDPNAIITAGALIGGGLIMGGGAIGAGIGDGIAGNALISGIARQPEAQGRLFTPFFITVGLVEAAYFINLAFMALFVFATPGLQ
B2: M. smegmatis ATP synthase subunit γ (natural protein)
chain: MAATLRELRGRIRSAGSIKKITKAQELIATSRIAKAQARVEAARPYAAEITNMLTELAGASALDHPLLVERKQPKRAGVLVVSSDRGLCGAYNANVLRRAEELFSLLRDEGKDPVLYVVGRKALGYFSFRQRTVVESWTGFSERPTYENAREIADTLVNAFMAGADDEGDDAGADGILGVDELHIVFTEFRSMLSQTAVARRAAPMEVEYVGEVETGPRTLYSFEPDPETLFDALLPRYIATRVYAALLEAAASESASRRRAMKSATDNADDLIKALTLAANRERQAQITQEISEIVGGANALAGSK
B3: M. smegmatis ATP synthase subunit β with C-terminal 3×FLAG tag (natural protein)
chain: MTATAEKTAGRVVRITGPVVDVEFPRGSVPELFNALHAEITFGALAKTLTLEVAQHLGDSLVRCISMQPTDGLVRGVEVTDTGASISVPVGDGVKGHVFNALGDCLDDPGYGKDFEHWSIHRKPPAFSDLEPRTEMLETGLKVVDLLTPYVRGGKIALFGGAGVGKTVLIQEMINRIARNFGGTSVFAGVGERTREGNDLWVELADANVLKDTALVFGQMDEPPGTRMRVALSALTMAEFFRDEQGQDVLLFIDNIFRFTQAGSEVSTLLGRMPSAVGYQPTLADEMGELQERITSTRGRSITSMQAVYVPADDYTDPAPATTFAHLDATTELSRAVFSKGIFPAVDPLASSSTILDPAIVGDEHYRVAQEVIRILQRYKDLQDIIAILGIDELSEEDKQLVNRARRIERFLSQNMMAAEQFTGQPGSTVPLKETIEAFDKLTKGEFDHLPEQAFFLIGGLDDLAKKAESLGAKL
B4: M. smegmatis ATP synthase subunit a (natural protein)
chain: MLAAEEGGAAIHVGHHTLVFELFGMTFNGDTILATAVTAVIVIALAFYLRAKVTSTGVPSGVQLFWEALTIQMRQQIEGSIGMKIAPFVLPLSVTIFVFILISNWLAVLPLQYGGADGAAAELYKAPASDINFVLALALFVFVCYHAAGIWRRGIVGHPIKVVKGHVAFLAPINIVEELAKPISLALRLFGNIFAGGILVALIAMFPWYIQWFPNAVWKTFDLFVGLIQAFIFSLLTILYFSQSMELDHEDH
B5: M. smegmatis ATP synthase subunit b-δ (b-δ fusion protein) (natural protein)
chain: MSIFIGQLIGFAVIAFIIVKWVVPPVRTLMRNQQEAVRAALAESAEAAKKLADADAMHAKALADAKAESEKVTEEAKQDSERIAAQLSEQAGSEAERIKAQGAQQIQLMRQQLIRQLRTGLGAEAVNKAAEIVRAHVADPQAQSATVDRFLSELEQMAPSSVVIDTAATSRLRAASRQSLAALVEKFDSVAGGLDADGLTNLADELASVAKLLLSETALNKHLAEPTDDSAPKVRLLERLLSDKVSATTLDLLRTAVSNRWSTESNLIDAVEHTARLALLKRAEIAGEVDEVEEQLFRFGRVLDAEPRLSALLSDYTTPAEGRVALLDKALTGRPGVNQTAAALLSQTVGLLRGERADEAVIDLAELAVSRRGEVVAHVSAAAELSDAQRTRLTEVLSRIYGRPVSVQLHVDPELLGGLSITVGDEVIDGSIASRLAAAQTGLPD
B6: M. smegmatis ATP synthase subunit b′ (natural protein)
chain: MGEFSATILAASQAAEEGGGGSNFLIPNGTFFAVLIIFLIVLGVISKWVVPPISKVLAEREAMLAKTAADNRKSAEQVAAAQADYEKEMAEARAQASALRDEARAAGRSVVDEKRAQASGEVAQTLTQADQQLSAQGDQVRSGLESSVDGLSAKLASRILGVDVNSGGTQ
B7: M. smegmatis ATP synthase subunit ε (natural protein)
chain: MADLNVEIVAVERELWSGPATFVFTRTTAGEIGILPRHIPLVAQLVDDAMVRVEREGEDDLRIAVDGGFLSVTEETVRILVENAQFESEIDADAAKEDAASDDERTAAWGRARLRALGQID

Holding throughout (assay): cryo-EM structure
Series [1] addresses B4.
Series [2] concerns the molecule itself.
Series [3] addresses B3.
Series [4] addresses M. smegmatis ATP synthase subunit α (M. smegmatis, UniProt A0R202 1-548).
The target of series [5] is B5.

Here are results for 7 molecules from paper doi:10.1101/2020.08.06.225375 (bioRxiv, 2020).

M. smegmatis ATP synthase subunit α, sequence (A0R202 whole entry): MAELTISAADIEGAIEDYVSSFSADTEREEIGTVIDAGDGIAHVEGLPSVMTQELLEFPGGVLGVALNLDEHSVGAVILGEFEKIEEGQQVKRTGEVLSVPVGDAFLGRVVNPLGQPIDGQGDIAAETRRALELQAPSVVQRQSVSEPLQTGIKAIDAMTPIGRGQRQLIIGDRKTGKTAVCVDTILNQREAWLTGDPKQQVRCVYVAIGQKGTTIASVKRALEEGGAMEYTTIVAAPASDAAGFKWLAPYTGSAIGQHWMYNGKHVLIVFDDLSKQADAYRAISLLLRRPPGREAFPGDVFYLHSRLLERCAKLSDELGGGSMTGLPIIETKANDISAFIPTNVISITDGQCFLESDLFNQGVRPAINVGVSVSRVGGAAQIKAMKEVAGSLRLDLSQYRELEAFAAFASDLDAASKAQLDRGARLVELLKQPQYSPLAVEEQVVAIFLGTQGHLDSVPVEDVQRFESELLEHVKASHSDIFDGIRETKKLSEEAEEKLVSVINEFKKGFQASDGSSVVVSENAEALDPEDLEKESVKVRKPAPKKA

What is called stoichiometry N is the number of molecules, sites or subunits per partner or assembly. With B1, the binding result in series [1] and in series [3] was “binds” each time. In addition, in series [2], the “stoichiometry N” value was 9. Regarding B2, the binding result in series [4] and in series [3] was “binds” in each case. As for B3, in series [4], the binding result is “binds”. In the case of B4, the binding result in series [5] and in series [3] was “binds” throughout. For the molecule B5, the binding result in series [4] and in series [3] was “binds” in each case. In the case of B6, the binding result in series [1] and in series [3] was “binds” in each case. For the molecule B7, in series [3], the binding result is given as “binds”.
